Consider nine sequences from the DeepSol protein solubility set.

This series is described as follows: soluble on expression in E. coli; label from the status in PepcDB or PDB records.
Take “PDITATPAWDALARHHDQIGNTHLRQFFADDPGRGRELTVSVGDLYIDYSKHRVTRETLALLIDLARTAHLEERRDQMFAGVHINTSEDRAVLHTALRLPRDAELVVDGQDVVTDVHAVLDAMGAFTDRLRSGEWTGATGKRISTVVNIGIGGSDLGPVMVYQALRHYADAGISARFVSNVDPADLIATLADLDPATTLFIVASKTFSTLETLTNATAARRWLTDALGDAAVSRHFVAVSTNKRLVDDFGINTDNMFGFWDWVGGRYSVDSAIGLSLMTVIGRDAFADFLAGFHIIDRHFATAPLESNAPVLLGLIGLWYSNFFGAQSRTVLPYSNDLSRFPAYLQQLTMESNGKSTRADGSPVSADTGEIFWGEPGTNGQHAFYQLLHQGTRLVPADFIGFAQPLDDLPTAEGTGSMHDLLMSNFFAQTQVLAFGKTAEEIAADGTPAHVVAHKVMPGNRPSTSILASRLTPSVLGQLIALYEHQVFTEGVVWGIDSFDQWGVELGKTQAKALLPVITGAGSPPPQSDSSTDGLVRRYRTERGRAGLE”: the “soluble on expression in E. coli” value was “soluble”. To “MVPTTPFTIENTPVGRGNSGARSHKEPSAKRKKPTSTPTVRCGTVPQEPSTSAATVTQKPAGSTMATANITETRRIDISSCSDRPLIPCTASGVPLTTFSNKSLDSILNQDSEIVGGISQKDLNELRNRGPNMTVKQLLAKNFKNYKVRQSLTSELATEFVNRTLSENDVPMGALIMPPMEDVQESIVKESKTYNYAAASGGSLPFSNPHSEGILIRSPAIKGPHTLRDVLDSLGSVGTPAANQTLKDVLGSFNSQQPIDPTPSKTLKDVLGSLDLDNDYDLKLKMEGLDHDLKVESPTDAELGLDEFANQILSSKYKGTSLDTDHTAYPGNHLPWPVLWKNPVPKYIQGEIYCYVDGCTYSPMSEIIKSGKFMVPLDHPVEFIFKDRPILVTMEELLTANGINMSKAQHYRMLQGLLQKSGVHIRADYAERLHEFQALMDGLEIEDKPRPALKLSSDKLPLMCIYPDIYMNALGRRIHGAVIVDSSGVQETIGTRTLITRHQIAEFLLENPESPDSPDITTAPSKNSTIGDMMRPKSKIRRTHYVDLNKMVWRHFKDCQAAGIQINGKQLKDQAMRYAKDMGLESFRGSEGWLDAFKRRHRIDLKSMTGYPVCYENDMYEEVDKECRELDMESHMLHQQPPSFFPQSAPDEFAASFFSSLSGFPQQMVVQEPPTTSSSNHLQNMINSMMTPPVVDSRMMPSTSSAGASGASASSQEPDGGGDTIFNVMRSCQIKVADKEVSHALDTLRTYILEHDPAAMSLLVPLQERLATTSSGAIGRDMPSTSSSS” belongs “soluble”; to “EMEPEEERIRYSQRLRGTMRRRYEDDGISDDEIEGKRTFDLEEKLHTNKYNANFVTFMEGKDFNVEYIQRGGLRDPLIFKNSDGLGIKMPDPDFTVNDVKMCVGSRRMVDVMDVNTQKGIEMTMAQWTRYYETPEEEREKLYNVISLEFSHTRLENMVQRPSTVDFIDWVDNMWPRHLKESQTESTNAILEMQYPKVQKYCLMSVRGCYTDFHVDFGGTSVWYHIHQGGKVFWLIPPTAHNLELYENWLLSGKQGDIFLGDRVSDCQRIELKQGYTFVIPSGWIHAVYTPTDTLVFGGNFLHSFNIPMQLKIYNIEDRTRVPNKFRYPFYYEMCWYVLERYVYCITNRSHLTKEFQKESLSMDLELNGLESGNGDEEAVDREPRRLSSRRSVLTSPVANGVNLDYDGLGKTCRSLPSLKKTLAGDSSSDCSRGSHNGQVWDPQCAPRKDRQVHLTHFELEGLRCLVDKLESLPLHKKCVPTGIEDEDALIADVKILLEELANSDPKLALTGVPIVQWPKRDKLKFPTRPKVRVPTIPITKPHTMKPAPRLTPVRPAAASPIVSGARRRRVRCRKCKACVQGECGVCHYCRDMKKFGGPGRMKQSCVLRQCLAPRLPHSVTCSLCGEVDQNEETQDFEKKLMECCICNEIVHPGCLQMDGEGLLNEELPNCWECPKCYQEDSSEKAQKRKMEESDEEAVQAKVLRPLRSCDEPLTPPPHSPTSMLQLIHDPVSPRGMVTRSSPGAGPSDHHSASRDERFKRRQLLRLQATERTMVREKENNPSGKKELSEVEKAKIRGSYLTVTLQRPTKELHGTSIVPKLQAITASSANLRHSPRVLVQHCPARTPQRGDEEGLGGEEEEEEEEEEEDDSAEEGGAARLNGRGSWAQDGDESWMQREVWMSVFRYLSRRELCECMRVCKTWYKWCCDKRLWTKIDLSRCKAIVPQALSGIIKRQPVSLDLSWTNISKKQLTWLVNRLPGLKDLLLAGCSWSAVSALSTSSCPLLRTLDLRWAVGIKDPQIRDLLTPPADKPGQDNRSKLRNMTDFRLAGLDITDATLRLIIRHMPLLSRLDLSHCSHLTDQSSNLLTAVGSSTRYSLTELNMAGCNKLTDQTLIYLRRIANVTLIDLRGCKQITRKACEHFISDLSINSLYCLSDEKLIQKIS”, “soluble”; to “MVRVKRSQLREGCVLAEDVLGKTKRPIIPKNTVITKPLLLVLEKFLVEEVDVEPLLANGEPFPNVDSASTAAAKQPMAFYLEAVQRYKTWFQSWQAGLPVDIGEIRGVIISLFERMAGQKRELLMLHHYATKDEYLHHHAVSVGLLAGFLAMQLGYSEGECHQIALAGVLADCGMAKVSKRILTNPSALTEAEFNEVKQHPVFSYRMVQKIPALNHGAKLAVLQHHERNDGSGYPLGVKAERIHPYSQIVAVADVYHAMTSERLYRRKQSPFRAIETMQREQFGKLSTEAVAALVNNLIGLQTGAVVKLSNGEMAEVMFIPSDEPARPIVKIIETGQLLSLSVQRDIYIEEMVQG”, “not soluble”. To “SSGLVPRGPLGSHMDAVDATMEKLRAQCLSRGASGIQGLARFFRQLDRDGSRSLDADEFRQGLAKLGLVLDQAEAEGVCRKWDRNGSGTLDLEEFLRALRPPMSQAREAVIAAAFAKLDRSGDGVVTVDDLRGVYSGRAHPKVRSGEWTEDEVLRRFLDNFDSSEKDGQVTLAEFQDYYSGVSASMNTDEEFVAMMTSAWQLKL” belongs “soluble”; to “MTRSEKTRHFGNQNYEKLRKICIKKKQPFVDTLFPPTNQSLFLEQRQSSDIVWKRPGELHPDPHLFVEGASPNDVTQGILGNCWFVSACSALTHNFKLLAQVIPDADDQEWSTKHAYAGIFRFRFWRFGKWVEVVIDDLLPTRDGKLLFARSKTPNEFWSALLEKAFAKLYGCYENLVGGHLSDALQDVSGGVAETLHVRKFLKDDPNDTELKLFNDLKTAFDKGALVVAAIAARTKEEIEESLDCGLVKGHAYAVSAVCTIDVTNPNERSFTSFIMGSKRKQNLIRLQNPWGEKEWNGAWSDDSPEWQNVSASQLSTMGVQPANSDSDDGDFWMPWESFVHYFTDISLCQLFNTSVFSFSRSYDEQIVFSEWTTNGKKSGAPDDRAGGCHNFKATFCNNPQYIFDIPSPNCSVMFALIQNDPSEGLKKREPFVTIGMHVMKVENNRQYRVHTAMHPIAISDYASGRSVYLHLQSLPRGRYLLIPTTFAPKEQTLFMLRVYSDEHIHFSPLTKHAPKLGLLKCKSAQSVTRLTIHGVDFNSASTGTHNVYAILKDSRKSFRTKTLSGVKSIQWDEQFLFHKSKNRQQYKIEVWEDRKMARDHLLAQSVIIALIDNENRDTTLQLTDPRGTVIGTVSVTVSAFDDPMYL”, “not soluble”; to “MSRLEIYSPEGLRLDGRRWNELRRFESSINTHPHAADGSSYMEQGNNKIITLVKGPKEPRLKSQMDTSKALLNVSVNITKFSKFERSKSSHKNERRVLEIQTSLVRMFEKNVMLNIYPRTVIDIEIHVLEQDGGIMGSLINGITLALIDAGISMFDYISGISVGLYDTTPLLDTNSLEENAMSTVTLGVVGKSEKLSLLLVEDKIPLDRLENVLAIGIAGAHRVRDLMDEELRKHAQKRVSNASAR”, “not soluble”. To “MSLSVPFEYTPIAQSVLDECEHLDTASLSDALDSLGIDGGLPGIASQVPGTRCVGIAFTVQYQPVDASEGFRGAANYIDQVPSGSVIVSSNSGRHDCTVWGDIMTHFALANGIKGTVIDGVARDIDTVINCNYPLFSRGRFMQSAKNRTQLKAVQVPLVIDGITIQPGDLMVCDGSGCVVVPQQLAAEVVLRARAVEQTERRIIEAISSGSTLEQARMTYRYDQPWLSEAEHGGTQEGHHHHHH” belongs “soluble”; to “RWETHVYRAVKDLLVGLGFTEVLQLVLTSPRLVEAAGFSSMAVEVLNPVQQEYSVLRPTLLITLLQTLRENQHRRKPVKVFEAGNAVYLEDGEPRDEEKLALGVLDEEAGFEDVQAPLYAVLRIMGVDFEVEEASHPMFMEGRTAAVKVGGERLGYIGEVKPEVLEAFGLEYPVAAAEISLEVLARWTS”, “soluble”.
